Data: patent US20230131056A1 (Stanford University, published 2023)
Where two headings read alike, the source gives them in different places. Values belong to the binder of their own block, whether it stands above or below them.

Legend:
PD-L2-Fc (human PD-L2) [1] = molecular target: T1, PD-L2-Fc (human PD-L2) (human, UniProt Q9BQ51 20-220, limits assumed); test: yeast surface display, flow cytometry titration with soluble PDL2 (cell binding A.U. against PDL2 concentration)
T1 construct: not shown: Fc portion
T1 sequence (looked up): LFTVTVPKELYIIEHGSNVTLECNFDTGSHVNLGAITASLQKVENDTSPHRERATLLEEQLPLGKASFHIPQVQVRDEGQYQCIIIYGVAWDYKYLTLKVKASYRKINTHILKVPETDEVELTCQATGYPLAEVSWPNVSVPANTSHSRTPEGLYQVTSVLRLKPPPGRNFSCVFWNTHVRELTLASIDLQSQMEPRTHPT

PD-L2-Fc (human PD-L2) [2] = molecular target: T1, PD-L2-Fc (human PD-L2); test: yeast surface display binding assay for PDL2 (summary list)
PD-L2-Fc (human PD-L2) [3] = molecular target: T1, PD-L2-Fc (human PD-L2); test: yeast surface display, flow cytometry titration with soluble PDL2
PD-L2-Fc (human PD-L2) [4] = molecular target: T1, PD-L2-Fc (human PD-L2); test: as above; remark: listed apart in the source
PDL1-Fc (human PD-L1) [5] = molecular target: T2, PDL1-Fc (human PD-L1) (human, UniProt Q9NZQ7 19-238, limits assumed); test: yeast surface display binding assay for PDL1 (summary list)
T2 construct: not shown: Fc portion

PDL1-Fc (human PD-L1) [6] = molecular target: T2, PDL1-Fc (human PD-L1); test: yeast surface display, flow cytometry titration with soluble PDL1 (cell binding A.U. against PDL1 concentration)
PD-L2-Fc (human PD-L2) [7] = molecular target: T1, PD-L2-Fc (human PD-L2); test: yeast surface display, flow cytometry titration with soluble PDL2 (cell binding A.U. against PDL2 concentration); remark: listed apart in the source
PD-L2-Fc (human PD-L2) [8] = molecular target: T1, PD-L2-Fc (human PD-L2); test: yeast surface display, flow cytometry titration with soluble PDL2; remark: listed apart in the source
PD-L2-Fc (human PD-L2) [9] = molecular target: T1, PD-L2-Fc (human PD-L2); test: yeast surface display, flow cytometry titration with soluble PDL2 (cell binding A.U. against PDL2 concentration); remark: listed apart in the source
PDL1-Fc (human PD-L1) [10] = molecular target: T2, PDL1-Fc (human PD-L1); test: yeast surface display, flow cytometry titration with soluble PDL1 (cell binding A.U. against PDL1 concentration); remark: listed apart in the source
PDL1-Fc (human PD-L1) [11] = molecular target: T2, PDL1-Fc (human PD-L1); test: yeast surface display, flow cytometry titration with soluble PDL1
PDL1-Fc (human PD-L1) [12] = molecular target: T2, PDL1-Fc (human PD-L1); test: as above; remark: listed apart in the source
PD-L2-Fc (human PD-L2) [13] = molecular target: T1, PD-L2-Fc (human PD-L2); test: yeast surface display, flow cytometry titration with soluble PDL2; remark: listed apart in the source
PD-L2-Fc (human PD-L2) [14] = molecular target: T1, PD-L2-Fc (human PD-L2); test: yeast surface display, flow cytometry titration with soluble PDL2 (cell binding A.U. against PDL2 concentration); remark: listed apart in the source
PDL1-Fc (human PD-L1) [15] = molecular target: T2, PDL1-Fc (human PD-L1); test: yeast surface display, flow cytometry titration with soluble PDL1 (cell binding A.U. against PDL1 concentration); remark: listed apart in the source
PDL1-Fc (human PD-L1) [16] = molecular target: T2, PDL1-Fc (human PD-L1); test: as above; remark: listed apart in the source
PD-L2-Fc (human PD-L2) [17] = molecular target: T1, PD-L2-Fc (human PD-L2); test: yeast surface display, flow cytometry titration with soluble PDL2 (cell binding A.U. against PDL2 concentration); remark: listed apart in the source
PD-L2-Fc (human PD-L2) [18] = molecular target: T1, PD-L2-Fc (human PD-L2); test: yeast surface display, flow cytometry titration with soluble PDL2; remark: listed apart in the source
PD-L2-Fc (human PD-L2) [19] = molecular target: T1, PD-L2-Fc (human PD-L2); test: yeast surface display, flow cytometry titration with soluble PDL2 (cell binding A.U. against PDL2 concentration); remark: listed apart in the source
PDL1-Fc (human PD-L1) [20] = molecular target: T2, PDL1-Fc (human PD-L1); test: yeast surface display, flow cytometry titration with soluble PDL1 (cell binding A.U. against PDL1 concentration); remark: listed apart in the source

T2 sequence (Q9NZQ7 19-238 limits assumed): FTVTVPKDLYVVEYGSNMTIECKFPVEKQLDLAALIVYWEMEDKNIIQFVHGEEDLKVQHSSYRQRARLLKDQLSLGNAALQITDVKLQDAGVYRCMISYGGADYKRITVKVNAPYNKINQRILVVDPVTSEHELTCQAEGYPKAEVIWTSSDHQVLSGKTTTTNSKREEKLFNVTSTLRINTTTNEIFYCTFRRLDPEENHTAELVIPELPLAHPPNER

B1: Clone #3 (128-6 mutations, yeast displayed sPD-1 mutant) (receptor)
chain: LDSPDRPWNPPTFSPALLVVTEGDNATFTCSFSNTSESFVLNWYRMSPSNQTDKLAAFPEDRGQLGQDCRFRVTQLPNGRDFHMSVVRARRNDSGTYLCSAIVLAPKIQIKESLRVELRVTERRAEVPTAHPSPSPRPAGQFQTLV
Kd (PD-L2-Fc (human PD-L2) [1]): 1.1 nM
Kd (PD-L2-Fc (human PD-L2) [2]): 1.1 nM
EC50 (read off the curve) (PD-L2-Fc (human PD-L2) [3]): ~1 nM

B3: original mutant sPD-1 (7 mutations, yeast displayed) (receptor)
chain: LDSPDRPWNPPTFSPALLVVTEGDNATFTCSFSNTSEGFVLNWYRMSPSNQTDKLAAFPEDRGQLGQDCRFRVTQLPNGRDFHMSVVRARRNDSGTYLCSAIVLAPKIQIKESLRVELRVTERRAEVPTAHPSPSPRPAGQFQTLV
notes: also called initial Mutant PD-1 clone; 2-7 mutations
EC50 (read off the curve) (PD-L2-Fc (human PD-L2) [8]): ~3 nM
Kd (PD-L2-Fc (human PD-L2) [9]): 2.6 nM
Kd (PD-L2-Fc (human PD-L2) [2]): 2.6 nM
Kd (PDL1-Fc (human PD-L1) [10]): 0.44 nM
Kd (PDL1-Fc (human PD-L1) [5]): 0.44 nM
EC50 (read off the curve) (PDL1-Fc (human PD-L1) [11]): ~0.4 nM

B4: Clone #5 (62-3 mutations, yeast displayed sPD-1 mutant) (receptor)
chain: LDSPDRPWNPPTFSPALLVVTEGDNATFTCSFSNTSESFVLNWYRMSPSNQTDKLAAFPEDRSQPGQDCRFRVTQLPNGRDFHMSVVRARRNDSGTYLCSAIVLAPKIQIKESLRAELRVTERRAEVPTAHPSPSPRPAGQFQTLV
EC50 (read off the curve) (PDL1-Fc (human PD-L1) [12]): ~0.8 nM
EC50 (read off the curve) (PD-L2-Fc (human PD-L2) [13]): ~4 nM
Kd (PD-L2-Fc (human PD-L2) [14]): 4.1 nM
Kd (PD-L2-Fc (human PD-L2) [2]): 4.1 nM
Kd (PDL1-Fc (human PD-L1) [5]): 0.8 nM
Kd (PDL1-Fc (human PD-L1) [15]): 0.8 nM

The remaining binders from weak to strong by Kd (PD-L2-Fc (human PD-L2) [2]), led by results:

EC50 (read off the curve) (PD-L2-Fc (human PD-L2) [4]): ~1 nM
Kd (PD-L2-Fc (human PD-L2) [2]): 1.4 nM
Kd (PDL1-Fc (human PD-L1) [5]): 0.03 nM
Kd (PDL1-Fc (human PD-L1) [6]): 0.03 nM
Kd (PD-L2-Fc (human PD-L2) [7]): 1.4 nM
B2: Clone #1 (121-5 mutations, yeast displayed sPD-1 mutant) (receptor)
chain: LDSPDRPWNPPTFSPALLVVTEGDNATFTCSFSNTSESFVLNWYRMSPSNQTDKLAAFPEDRSQLGQDCRFRVTQLPNGRDFHMSVVRARRNDSGTYLCSAIVLAPKIQIKESLRVELRVTERRAEVPTAHPSPSPRPAGQFQTLV

Kd (PDL1-Fc (human PD-L1) [16]): 0.08 nM
Kd (PD-L2-Fc (human PD-L2) [2]): 0.87 nM
Kd (PD-L2-Fc (human PD-L2) [17]): 0.87 nM
EC50 (read off the curve) (PD-L2-Fc (human PD-L2) [18]): ~0.9 nM
Kd (PDL1-Fc (human PD-L1) [5]): 0.08 nM
B5: Clone #4 (100-4 mutations, yeast displayed sPD-1 mutant) (receptor)
chain: LDSPDRPWNPPTFSPALLVVTEGDNATFTCSFSNTSESFVLNWYRMSPSNQTDKLAAFPEDRSQPGQDCRFRVTQLPNGRDFHMSVVRARRNDSGTYLCSAIVLAPKIQIKESLRVELRVTERRAEVPTAHPSPSPRPAGQFQTLV

Kd (PD-L2-Fc (human PD-L2) [2]): 0.11 nM
Kd (PD-L2-Fc (human PD-L2) [19]): 0.11 nM
Kd (PDL1-Fc (human PD-L1) [5]): 0.12 nM
Kd (PDL1-Fc (human PD-L1) [20]): 0.12 nM
B6: Clone #2 (120-5 mutations, yeast displayed sPD-1 mutant) (receptor)
chain: LDSPDRPWNPPTFSPALLVVTEGDNATFTCSFSNTSESFVLNWYRMSPSNQTDKLAAFPEDRGQPGQDCRFRVTQLPNGRDFHMSVVRARRNDSGTYLCSAIVLAPKIQIKESLRVELRVTERRAEVPTAHPSPSPRPAGQFQTLV
